The source of these data is publication doi:10.1101/2025.08.21.671446 (bioRxiv, 2025).

The term stoichiometry N denotes the number of molecules, sites or subunits per partner or assembly. In general, Kd refers to the constant that tells how readily two partners part at equilibrium. Low readings indicate tighter binding, high ones weaker binding.

Where “and” joins values, the source holds several entries; their conditions need not be identical. Identical values can stand only once. Like-named read-outs stand apart in the source and are kept apart here.

Data set [1] concerns the molecule itself. In words: SEC.
Data set [2] concerns the molecule itself. In words: SEC. The source holds these as a separate data set.
For data set [3], the target named is T1, MoyR (Mycobacterium tuberculosis H37Rv, UniProt O86331 1-269).
T1 sequence: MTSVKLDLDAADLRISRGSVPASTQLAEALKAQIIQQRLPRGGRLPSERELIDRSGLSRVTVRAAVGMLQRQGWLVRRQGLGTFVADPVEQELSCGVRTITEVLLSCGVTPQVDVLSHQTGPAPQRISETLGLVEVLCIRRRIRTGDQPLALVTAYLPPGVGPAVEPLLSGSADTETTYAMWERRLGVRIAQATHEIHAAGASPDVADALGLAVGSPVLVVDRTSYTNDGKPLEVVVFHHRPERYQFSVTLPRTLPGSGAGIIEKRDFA
Put plainly: EMSA. (In general: In EMSA bound probe runs differently from free probe, usually more slowly.)

Data set [4] addresses T1, MoyR. Put plainly: EMSA. The source holds these as a separate data set.
The target of data set [5] is T1, MoyR. In words: EMSA. The source holds these as a separate data set.

B1: MoyR (Rv0792c), GntR family (HutC subfamily) monooxygenase regulator of Mycobacterium tuberculosis (natural protein)
chain: T1 sequence
On to B1, for which the “stoichiometry N” value in “SEC [1]” was 4 and 6; in “SEC [2]”, 2.

B2: moyOf6 (20 bp) (dsDNA)
DNA 1: AGCTTGACAGATGTCATAAG
DNA 2: CTTATGACATCTGTCAAGCT
For the molecule B2, the binding result with MoyR [3] is recorded as “no binding”.

B3: moyOf4 (dsDNA)
DNA 1: TAGCAGCGGAAGAAGGTCA
DNA 2: TGACCTTCTTCCGCTGCTA
With B3, the binding result with MoyR [4] is listed as “no binding”.

B4: moyOf1 (47 bp) (dsDNA)
DNA 1: AGCTTGACAGATGTCATAAGACGTATTAAAACGTCTTATACTCACCA
DNA 2: TGGTGAGTATAAGACGTTTTAATACGTCTTATGACATCTGTCAAGCT
In the data set with MoyR [5], B4 displayed a dissociation constant (Kd) of 16.6 nM.
